# Measured values taken from PMC2783839.
# Target: T1, NEUROG2 (cNEUROG2) (Gallus gallus (chick)?, UniProt Q9YH82 1-213)
# T1 sequence: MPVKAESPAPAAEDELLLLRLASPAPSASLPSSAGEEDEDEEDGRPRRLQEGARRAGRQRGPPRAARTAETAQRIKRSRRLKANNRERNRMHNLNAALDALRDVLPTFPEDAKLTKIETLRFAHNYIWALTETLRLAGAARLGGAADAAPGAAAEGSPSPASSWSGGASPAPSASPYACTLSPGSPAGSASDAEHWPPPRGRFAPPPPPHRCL
# Experiment: EMSA
binder,measurement,value
(Ebox)3 (dsDNA) DNA 1: GATCCAGGCAGGTGGCAGGCAGGTGGCAGGCAGGTGGCAGATC DNA 2: GATCTGCCACCTGCCTGCCACCTGCCTGCCACCTGCCTGGATC,binding result,no binding
